Data reported in patent publication US20240279318A1 (published 2024).

Key:
AFP158 loaded T2 cells = AFP158 loaded T2 cells (human;, UniProt P61769 21-119); test: flow cytometry
[1] = target: AFP158/HLA-A*02:01 complex; test: SPR; head prints KD(1/s)
[2] = target: AFP158/HLA-A*02:01 complex; test: SPR
A*02:07 [3] = test: SPR
A*02:05 [4] = test: SPR
A*02:11 [5] = test: SPR
A*02:02 [6] = test: SPR
A*02:03 = test: SPR
A*02:06 [7] = test: SPR
A*02:07 [8] = test: SPR; low fitting confidence
A*02:05 [9] = test: SPR; low fitting confidence
A*02:11 [10] = test: SPR; low fitting confidence
A*02:02 [11] = test: SPR; low fitting confidence
A*02:06 [12] = test: SPR; low fitting confidence

B1: AS190259 VL1VH1 scFv-mIgG2aFc (Fc fusion)
chain: SSELTQDPAVSVALGQTVRITCQGGGYYVNWYQQKPGQAPVLVIYLNTNRPSGIPDRFSGSSSGNTASLTITGAQAEDEADYYCQSADSSGNSAVFGGGTKLTVLGGGGSGGGGSGGGGSEVQLVESGGGLVQPGGSLRLSCAASGFTFSSYAMSWVRQAPGKGLEWVSAINSGGGSTYYADSVKGRFTISRDNSKNTLYLQMNSLRAEDTAVYYCAKAASGYGGSWWGDATLDAWGQGTLVTVSS
**Q.** How did the EC50 (AFP158 loaded T2 cells) turn out when B1 was run?
**A.** 3.56 nM

**Q.** What about the Kd [1] of the same binder?
**A.** 130 nM

B2: AS170036 VL1VH1 scFv-mIgG2aFc (Fc fusion)
chain: QSALTQPRSVSGSPGQSVTISCAGTSSDVGSENYVSWYQQHPGKAPKLMIYQVNKRASGVPDRFSGSKSGNTASLTISGLQAEDEADYYCASYRSSDHNIVFGGGTKLTVLGGGGSGGGGSGGGGSEVQLVESGGGLVQPGGSLRLSCAASGFTFSSYAMSWVRQAPGKGLEWVSTINSGTGSPYYADSVKGRFTISRDNSKNTLYLQMNSLRAEDTAVYYCAKNFFDGSWFLGPPAMDYWGQGTLVTVSS
**Q.** With B2 as the binder, how does the EC50 (AFP158 loaded T2 cells) read?
**A.** 8.79 nM

**Q.** What about the Kd [2] of the same binder?
**A.** 256 nM

B3: AS179723 (Fc fusion)
chain: QAGLTQPPSMSGSPRQSVTISCTGSSNNIGGNYVNWYQHLPGTAPKLLIYDNKNRPSGVPEQISGSKSGSSASLTITGLQAEDEGDYYCASWDDSLSAVVFGGGTHLTVLGGGGSGGGGSGGGGSEVQLVESGGGLVQPGGSLRLSCAASGFTFLNYAMSWVRQAPGKGLEWVSSNSGAGSTYYSDSVKGRFTISRDYAKNVVYLQLNSLKTEDTGMYYCAKGTNVGSWSSLHYWGQGTQVTVSS
**Q.** B3 was tested. Which Kd (A*02:07 [3]) did it give?
**A.** 1270 nM

**Q.** What about the Kd (A*02:05 [4]) of the same binder?
**A.** 29000 nM

**Q.** What about the Kd (A*02:11 [5]) of the same binder?
**A.** 297 nM

**Q.** What about the Kd (A*02:02 [6]) of the same binder?
**A.** 32200 nM

**Q.** And the Kd (A*02:03)?
**A.** 2570 nM

**Q.** And the Kd (A*02:06 [7])?
**A.** 114 nM

B4: AS170036 (Fc fusion)
chain: QLVLTQPSSVSGTPGQTVTISCAGTSSDVGSENYVSWYRQLPGTAPKLLIYQVNKRASGIADRFSGSKSGNTASMTISGLQSADEADYYCASYRSSDHNIVFGGGTHLTVLGGGGSGGGGSGGGGSAVQLVESGGGLVQPGGSLRLSCTASGFTFSSYAMSWVRQAPGKGLEWVSTINSGTGSPYYADSVKGRFTISRDNAKNTLYLQLNSLKTEDTAMYYCAKNFFDGSWFLGPPAMDYWGKGTLVTISS
**Q.** With B4 as the binder, how does the Kd (A*02:07 [8]) read?
**A.** > 4800 nM

**Q.** What about the Kd (A*02:05 [9]) of the same binder?
**A.** > 100000 nM

**Q.** What about the Kd (A*02:11 [10]) of the same binder?
**A.** > 28000 nM

**Q.** And the Kd (A*02:02 [11])?
**A.** > 5000 nM

**Q.** What about the Kd (A*02:06 [12]) of the same binder?
**A.** > 3100 nM

**Q.** What about the Kd (A*02:03) of the same binder?
**A.** 38000 nM
